# From the RNAGym collection of RNA variant scans (doi:10.1073/pnas.2313332121)
# B1: TPR t1 (parent)
# chain: GACCAAUCUGCCCUCAGAGCUCGAGAACAUCUUCGGAUGCAGAGGAGGCAGGCUUCGGUGGCGCGAUAGCGCCAACGUCCUCAACCUCCAAUGCAUCCCACCACAUGAUGAUGCCUGAAGAGCCUUGGUUUUUUG
# Variants of: B1
# Test: polymerase ribozyme fitness, log enrichment relative to wild type (log ratio); higher = more active; in vitro selection for triplet polymerase activity
# Outline: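 Only genotypes with ≥10 input reads and ≥1 read per output were kept after Illumina sequencing of input and output libraries. These libraries were PCR-built, transcribed mutants of each subunit of a heterodimeric triplet polymerase ribozyme, each put through one triplicate in vitro selection round with frozen incubation at −7 °C, gel excision of extended constructs, streptavidin-bead capture and RT-PCR. Fitness is a logarithmic ratio of genotype enrichment to wild-type enrichment, from inverse-variance-weighted replicate averages, with the logarithm in base 2.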
row,Variant,polymerase ribozyme fitness (log ratio)
1,C8A G57U A66G C76U A90U,-4.82
2,C8A G47A C80A U112A,-5.77
3,U7G U32G C73A C98A,-4.14
4,U7G A16C U55G C56U A84G,-4.09
5,C8A G71A,0.22
6,C8A G51C C73U C94U U130G,-3.59
7,C8A G36U U132A,-1.09
8,C8A C53G,-0.744
9,C8A C12U C13G G69A C98U,-4.08
10,C8G A26G C86G U109C,-5.29
11,C8G G17U U81A U87C U96C G113A,-4.04
12,U7G C15U C20U,-1.35
13,C8G G19A G69U C79U A111G U129C U133A,-1.15
14,C8G C56A,0.399
15,C8A C13U U55G G69A,-2.21
16,C8A G36U C49G G71U,-1.2
17,C8G G44C G60A,0.198
18,U7G G39A C62G C114G,-6.04
19,C8G G44U,-0.116
20,C8G A90G G113U G117A G127A,-6.12
21,C8G G135U,-0.819
22,C8A C22G G61U A121U,-1.38
23,C8A G25U A26C C40U G63U C88G U112C C123A C124A U130A,-7.64
24,C8G G63C,-1.11

row,Variant,polymerase ribozyme fitness (log ratio)
1,C8G C11G C53U C62U U81G C102A,-4.4
2,C8G A100U U106A U116A,-0.749
3,C8A U21G,-1.24
4,C8G G10C G23C G25A G60C C88G G110A,-7.14
5,U7G C53A A91U C101G,-4.34
6,C8G C80A A90U G128C U129G,-4.56
7,C8G G107U G113A,-3.41
8,C8A C53U U55A G77A C89A U129C,-3.11
9,C8G A18C G39C U133G,-2.2
10,C8G C72A,0.366
11,U7G G10A G39U G69C C101G G110C,-7.07
12,C8A A18C C56G A95G,-2.26
13,U7G G10A G19U G113A,-1.32
14,C8G C12G A46U,-0.837
15,C8A U9G U87A,0.00649
16,C8A A74G,0.152
17,C8A A74U,-0.0501
18,U7G A74C G93U G113A,-1.35
19,C8A A41U C49U,-1.56
20,C8A A84U,0.295
21,C8A C28U G48C G57U G127C,-3.86
22,C8G C20U U32G C56G G113A U125G,-3.85
23,U7G A27U G48A U112A,-1.8
24,C8G G52C C62U C89U,-1.08

row,Variant,polymerase ribozyme fitness (log ratio)
1,U7G C13A A37C G52A G69C,-1.85
2,C8A C13U C31A G61U U96A C124G,-5.55
3,C8A G47C C56G C82U U87A C101U G107U C115U A118C,-6.49
4,C8G G45U G63C A83U A91C U112A,-1.6
5,C8G A46G G107A,-4.69
6,C8A C79A,-0.182
7,C8A C79G,-1.65
8,C8G C98G U132C,-4.39
9,C8G A46U A91U G117C,-2.28
10,U7G A18U C101U,-1.59
11,U7G G120A,1.99
12,C8A U14A C101G,-1.85
13,C8G C102U U106C,-0.803
14,U7G G63A C86G C94A G113U,-5.43
15,C8A G35C G71A,-5.94
16,C8A C31A,-5.54
17,C8A C88A,0.0973
18,C8G C15U C70U,-0.473
19,C8A A24G U32A C73G A111G,-4.24
20,C8G C82A G117U,0.587
21,C8A C115U,-0.595
22,C8A C115G,-0.0701
23,C8G G52U G60A U96G,-0.693
24,U7G C8A C86U,0.828

row,Variant,polymerase ribozyme fitness (log ratio)
1,C8G G61A U87G C123A,1.64
2,C8A G63A,-0.863
3,C8G C13U G45C A84C,0.0875
4,U7G C13U A26G G48A C49U G52A A75C,-3.14
5,C8G G35C C89U,-4.98
6,U7G G42A G63C U81A U109A U130C,-6.25
7,U7G G52A C104A C114G U133G,-3.61
8,C8G C28A,-3.24
9,C8G C28G,-2.05
10,C8A G48U C53A C62U C82U U106A A108G,-1.01
11,C8G C20A A84C C124U,-0.801
12,C8A G122A,0.24
13,C8G C53U,0.216
14,C8G C97G,-3.25
15,C8A U9G C85G C89A U126G G127C,-2.22
16,C8A U130G U132A,-2.74
17,U7G U92A,-2.22
18,C8G G10A A16C A95U G122U,-0.858
19,C8G G36A G44A C70G,-4.2
20,C8G C20A C72U G77A,-1.87
21,C8A C28A G63U G77C C86A U112C,-6.46
22,U7G A105C G120U,-0.828
23,C8G G71A,0.0703
24,C8G G71U,0.189

row,Variant,polymerase ribozyme fitness (log ratio)
1,C8G G71C,-0.095
2,C8A U21A C34G C70A U109G,-5.88
3,U7G A41U,-0.368
4,C8A C64U,0.575
5,C8G C20U G69U C101U,-1.07
6,U7G C8U C53A U59C C80U,-4.87
7,C8G G19A C76A,-3.65
8,C8G A74C,0.88
9,C8A A50C C62A C82A C85A C88U C89G A121U,-3.62
10,C8G G113U,-1.24
11,C8A A121U,2.6
12,C8G C28A C72A,-4.41
13,C8G C28G C97A U106A C115U U133G,-5.09
14,U7G G39A C114G,-2.02
15,C8A G61U G117U A119U C123U,-0.671
16,U7G U33G,-5.33
17,U7G G71U C115A,1.44
18,U7G C89A U116A G117A,-2.89
19,C8G G44C C49A C123G,0.185
20,C8A A16C C40U C72A U92G C123U U130A,-3.93
21,C8G C13U A16U G71A,-0.033
22,C8A C12A C79U C80U C114U,-4.99
23,U7G A43U G47C G58U U59G C82U G110A,-5.4
24,C8G G23U A24U A41C G60U C86G C101A G120A,-7.63

row,Variant,polymerase ribozyme fitness (log ratio)
1,C8A C64G C72U A121G,-6.31
2,C8A C28U G52U G117C C124A G128A U133A,-6.69
3,U7G C8A,0.287
4,C8A C12A G39A,-0.403
5,C8A C101G,-1.63
6,C8G G69C G113A,-1.36
7,C8G G69U,0.724
8,C8A A27C U33G G36C G42U G110C G113C,-6.47
9,U7G C12G A37G,0.709
10,C8G A50U U54C U106A G117A,-0.842
11,C8A C15G C64U C82G C89A U109A,-6.66
12,U7G U96A A121C,0.553
13,C8G C13A A18G C53A C88A U125G,-3.4
14,U7G A46G C124A,1.74
15,C8G C15A C20U C56A G57U,-1.84
16,U7G U54C U55G,0.467
17,U7G C15A U38C C40G A41U G48U G69A C89A U96G C98U A111G,-7.66
18,U7G U59G C62U A84C A90U A111U C115A,-5.26
19,U7G A41G C53A G61U C79U A90U A111C,-3.04
20,C8G G36A A74U A90G,-0.292
21,C8A G42U G44A C114U,-1.01
22,C8G C11U U21C C34U,-3.99
23,C8G C13G A16U C49A C70U U129C,-1.75
24,C8G G19U G71A G113A U130C,-2.08

row,Variant,polymerase ribozyme fitness (log ratio)
1,C8G G36U U54C A91C C124A,-0.94
2,C8G C22U C53A C101A A121G C124A,-3.25
3,U7G C40U U54C C73A U106A,1.14
4,C8G C115A U130G,1.67
5,C8G A16C C62U C94A U112G U130C,-1.66
6,C8G A29U G120U,0.42
7,C8A C12A C85U,-0.437
8,U7G C88U G93C,-1.33
9,C8A C11A G51U,-2.89
10,C8G G69U G107U G113A,-1.04
11,U7G A43G G47U G61A U96A,-2.6
12,U7G A41C C56U,-0.335
13,C8G C62U C86G G117A A119U,-0.52
14,C8A A43U,-1.01
15,C8G C64U,0.927
16,C8A G63U G77C G117C,-4.17
17,C8G C11U C124A,2.24
18,C8G C11G C56A C62G C85U,-4.61
19,C8G G48U G93U U112A C124A,-0.874
20,U7G G10C G45A G47A U59G G77A,-1.37
21,C8G A50C C73U G93A,-0.0523
22,C8G C12U G63A G122A C123U,0.85
23,U7G C73A C80A G128C,-5.2
